Data: patent US11466066B2, “Variants of human BMP7 protein” (ELI LILLY AND COMPANY, priority 2017, dated 2022)
Changes are numbered by the printed parent chain. Numbers in names are those of the source. One block for each molecule: values may come before it.

Tests used:
[1] = molecular target: T1, Noggin (Homo sapiens, UniProt Q13253); test: BMP inhibitor activity, hepcidin promoter luciferase: Noggin; format: cell-based
T1 construct: purchased R&D Systems
T1 sequence (Q13253 28-232): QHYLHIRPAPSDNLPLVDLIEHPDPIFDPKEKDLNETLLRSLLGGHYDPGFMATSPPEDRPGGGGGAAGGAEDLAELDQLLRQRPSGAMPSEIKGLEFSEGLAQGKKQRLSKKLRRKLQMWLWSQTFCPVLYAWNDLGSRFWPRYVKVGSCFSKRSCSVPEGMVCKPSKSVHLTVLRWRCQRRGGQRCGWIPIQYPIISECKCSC
Experimental: (§1) Briefly described, Hep3B2 cells stably transfected with a hepcidin promoter luciferase construct (hereinafter, referred to as Hep3B2_HepPro_luc cells) were used for BMP inhibitor experiments. Hep3B2_HepPro_luc cells may be plated at 30,000 cells per well in a tissue culture treated 96 well plate in DMEM (Hyclone) 5% FBS (Gibco) supplemented with non-essential amino acids (Hyclone) and 200 μg/ml gentecin (Hyclone) for 24 hours. Cells were then starved in OMEM+0.2% BSA for 5 hours. Cells were treated with a mixture of human BMP7 proteins and variants thereof in OMEM (Gibco)+0.2% BSA (Gibco) for 18 hours then developed for luciferase activity utilizing Luciferase reporter Gene Assay Kit (Roche). BMP7 proteins were added at concentrations in the linear range of the assay, at 1 nM and 100 pM. Inhibitors were added at various concentrations in molar excess of the particular BMP7 protein being tested. All BMP inhibitors except Follistatin were purchased from R&D Systems. Follistatin and BMP7 proteins and variants thereof were generated at Eli Lilly and Company.

[2] = Stir-induced aggregation (solubility) assay; format: physicochemical; settings: 40 μg/mL, pH 7.4, stirred 400 rpm
Experimental: Solubility/physical stability of human BMP7 protein and human BMP7 protein variants may be measured in a stir-induced aggregation assay. Proteins are diluted to 40 μg/mL with assay buffer (50 mM sodium phosphate, 150 mM NaCl, pH 7.4) to a total volume of 2 mL. This solution may be put in a 7 mL glass vial containing one ‘flea’ stir bar and stirred at 400-rpm at room temperature. At periodic intervals (typically 0, 30, 60, 90, 120, and 150 minutes) a 150 μL aliquot may be withdrawn and centrifuged for 2 minutes at 16,000×g in a 1.5 mL tube. The supernatant (120 μL) may be transferred to an HPLC vial and the amount of remaining protein may be determined by reversed-phase HPLC under the following conditions: Zorbax C8 SB-300® column (3.5 micron, 4.6×50 mm), mobile phase: A buffer=0.1% TFA (v/v) in water, B buffer=0.085% TFA (v/v) in acetonitrile; flow rate at 1 mL/minute; column heated to 60° C.; autosampler cooled to 10° C., 214 nm UV detection, 80 μL injection, and 20 minute run time using the linear gradient indicated below. From the HPLC chromatograms (not shown) the protein peak or peaks (e.g., mature and pro domains) are integrated and percent change from initial peak area may be calculated.

[3] = molecular target: T2, Coco (Homo sapiens, UniProt Q8N907); test: BMP inhibitor activity, hepcidin promoter luciferase: Coco; format: cell-based
T2 construct: purchased R&D Systems
T2 sequence (Q8N907 23-189): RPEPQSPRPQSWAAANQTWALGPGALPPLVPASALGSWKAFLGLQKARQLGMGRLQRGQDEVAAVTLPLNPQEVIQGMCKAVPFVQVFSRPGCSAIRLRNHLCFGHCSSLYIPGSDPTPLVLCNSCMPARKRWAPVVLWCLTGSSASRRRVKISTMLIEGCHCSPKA
Experimental: as §1

[4] = test system: Chordin; test: BMP inhibitor activity, hepcidin promoter luciferase: Chordin; format: cell-based
Experimental: as §1

[5] = molecular target: T3, Follistatin (Homo sapiens, UniProt P19883); test: BMP inhibitor activity, hepcidin promoter luciferase: Follistatin; format: cell-based
T3 construct: made in house
Experimental: as §1

[6] = molecular target: T4, Chordin-like 2 (Homo sapiens, UniProt Q6WN34); test: BMP inhibitor activity, hepcidin promoter luciferase: Chordin-like 2; format: cell-based
T4 construct: purchased R&D Systems
T4 sequence (Q6WN34 26-429): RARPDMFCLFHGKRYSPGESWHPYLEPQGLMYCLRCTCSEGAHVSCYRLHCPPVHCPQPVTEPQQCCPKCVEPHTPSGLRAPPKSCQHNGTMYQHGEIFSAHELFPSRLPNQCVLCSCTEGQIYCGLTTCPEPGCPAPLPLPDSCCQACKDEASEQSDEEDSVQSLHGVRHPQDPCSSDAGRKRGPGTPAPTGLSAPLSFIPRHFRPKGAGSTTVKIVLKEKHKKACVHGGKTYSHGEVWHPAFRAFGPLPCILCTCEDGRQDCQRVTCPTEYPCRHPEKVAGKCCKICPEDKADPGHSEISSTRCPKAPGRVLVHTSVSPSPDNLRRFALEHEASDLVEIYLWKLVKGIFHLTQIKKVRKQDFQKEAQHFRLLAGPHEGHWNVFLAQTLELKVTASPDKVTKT
Experimental: as §1

[7] = test system: female CB17SC-M SCID mice; test: Ectopic bone formation model; format: in vivo; settings: 3 μg/100 μl subcutaneous; CT scan on Day 13
Experimental: Ectopic bone formation (EBF) may be measured in female CB17SC-M SCID mice upon subcutaneous administration of certain human BMP7 protein variants of the present invention compared to wild type human mature BMP7.
Briefly described, the mice may be anesthetized with 3% isoflurane and are injected with 3 μg/100 μl of the human BMP7 protein variant, wild type human mature BMP7 protein or a vehicle control on the back left flank. The back right flank of each mouse may serve as a control (no injection). Vehicle (pH 4.5): 0.5% Sucrose, 2.5% Glycine, 5 mM L-Glutamic Acid, 5 mM NaCl, 0.01% polysorbate 80, and, 0.1% BSA.
EBF may be measured by a CT scan on Day 13 after injection of the human BMP7 protein variant or wild type human mature BMP7 protein.

[8] = molar excess 100X, Hep3B2_HepPro_luc cells, 18 hours
[9] = Chordin-like 2, molar excess 0.1X
[10] = Chordin-like 2, molar excess 1X
[11] = Chordin-like 2, molar excess 10X
[12] = Chordin-like 2, molar excess 100X, Hep3B2_HepPro_luc cells, 18 hours

T3 sequence (P19883 30-344, species assumed): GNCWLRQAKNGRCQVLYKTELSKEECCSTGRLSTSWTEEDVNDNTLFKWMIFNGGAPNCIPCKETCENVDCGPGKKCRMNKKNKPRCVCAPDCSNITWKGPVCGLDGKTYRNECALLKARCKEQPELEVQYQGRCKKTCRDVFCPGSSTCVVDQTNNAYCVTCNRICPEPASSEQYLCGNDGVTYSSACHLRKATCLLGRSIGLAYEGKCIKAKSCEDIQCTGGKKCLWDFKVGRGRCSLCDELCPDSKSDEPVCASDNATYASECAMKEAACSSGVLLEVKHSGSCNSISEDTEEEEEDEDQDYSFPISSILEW

% inhibition ([1]; molar excess 0.1X): −5.3% | % inhibition ([1]; molar excess 1X): 24.8% | % inhibition ([1]; molar excess 10X): 84.8% | % inhibition [1, 8]: 87.3% | % inhibition ([3]; molar excess 0.1X): −10.2% | % inhibition ([3]; molar excess 1X): 4.0% | % inhibition ([3]; molar excess 10X): 17.4% | % inhibition [3, 8]: 81.6% | % inhibition ([4]; molar excess 0.1X): −15.1% | % inhibition ([4]; molar excess 1X): −2.2% | % inhibition ([4]; molar excess 10X): 18.9% | % inhibition [4, 8]: 76.5% | % inhibition ([5]; molar excess 0.1X): −10.4% | % inhibition ([5]; molar excess 1X): 5.9% | % inhibition ([5]; molar excess 10X): 29.5% | % inhibition [5, 8]: 79.8% | % inhibition [6, 9]: 8.9% | % inhibition [6, 10]: 55.9% | % inhibition [6, 11]: 87.5% | % inhibition [6, 12]: 88.2%
Molecule: Wild type human pro-BMP7: homodimers of wild type human mature BMP7 in a non-covalent complex with wild type human pro-domain [reference compound]
Percent of Material Precipitated ([2]; 0 minutes): 0% | Percent of Material Precipitated ([2]; 30 minutes): 8% | Percent of Material Precipitated ([2]; 60 minutes): 42% | Percent of Material Precipitated ([2]; 90 minutes): 51% | Percent of Material Precipitated ([2]; 120 minutes): 65% | Percent of Material Precipitated ([2]; 150 minutes): 72%

% inhibition ([1]; molar excess 0.01X): −2.6% | % inhibition ([1]; molar excess 0.1X): −7.2% | % inhibition ([1]; molar excess 1X): −6.9% | % inhibition ([1]; molar excess 10X): −1.2% | % inhibition ([3]; molar excess 0.01X): 2.3% | % inhibition ([3]; molar excess 0.1X): 7.0% | % inhibition ([3]; molar excess 1X): 7.3% | % inhibition ([3]; molar excess 10X): 28.5% | % inhibition ([4]; molar excess 0.01X): 3.7% | % inhibition ([4]; molar excess 0.1X): 6.8% | % inhibition ([4]; molar excess 1X): 5.2% | % inhibition ([4]; molar excess 10X): 5.6% | % inhibition ([5]; molar excess 0.01X): 3.9% | % inhibition ([5]; molar excess 0.1X): 10.6% | % inhibition ([5]; molar excess 1X): 10.0% | % inhibition ([5]; molar excess 10X): 23.8% | % inhibition ([6]; Chordin-like 2, molar excess 0.01X): −1.5% | % inhibition [6, 9]: −3.2% | % inhibition [6, 10]: −1.0% | % inhibition [6, 11]: 9.0%
B1: Human mature BMP7 protein variant F9 (SEQ ID NO: 8): homodimer wherein each monomeric subunit has SEQ ID NO: 8 (Y65G/I86L/F93V/N110G/Y128W), disulfide linked (protein)
chain: STGSKQRSQNRSKTPKNQEALRMANVAENSSSDQRQACKKHELYVSFRDLGWQDWIIAPEGYAAGYCEGECAFPLNSYMNATNHALVQTLVHVINPETVPKPCCAPTQLGAISVLYFDDSSNVILKKWRNMVVRACGCH
modifications: homodimer, disulfide linked
Percent of Material Precipitated ([2]; 0 minutes): 0% | Percent of Material Precipitated ([2]; 30 minutes): 7% | Percent of Material Precipitated ([2]; 60 minutes): 23% | Percent of Material Precipitated ([2]; 90 minutes): 24% | Percent of Material Precipitated ([2]; 120 minutes): 37% | Percent of Material Precipitated ([2]; 150 minutes): 39% | Ectopic Bone Formation Volume [7]: 7 mm^3

% inhibition ([1]; molar excess 0.1X): −12.2% | % inhibition ([1]; molar excess 1X): 36.7% | % inhibition ([1]; molar excess 10X): 72.8% | % inhibition [1, 8]: 73.7% | % inhibition ([3]; molar excess 0.1X): −23.6% | % inhibition ([3]; molar excess 1X): −25.9% | % inhibition ([3]; molar excess 10X): 37.6% | % inhibition [3, 8]: 77.4% | % inhibition ([4]; molar excess 0.1X): −13.1% | % inhibition ([4]; molar excess 1X): −9.2% | % inhibition ([4]; molar excess 10X): 21.3% | % inhibition [4, 8]: 70.9% | % inhibition ([5]; molar excess 0.1X): −16.6% | % inhibition ([5]; molar excess 1X): −11.9% | % inhibition ([5]; molar excess 10X): 21.1% | % inhibition [5, 8]: 54.7% | % inhibition [6, 9]: −13.7% | % inhibition [6, 10]: 49.0% | % inhibition [6, 11]: 69.5% | % inhibition [6, 12]: 71.9%
B2: Wild type human mature BMP7 (SEQ ID NO: 2): dimer of two glycosylated, 139 amino acid disulfide-linked proteins of about 35 kDa, SEQ ID NO: 2 (protein, listed as Homo sapiens)
chain: B1 chain with G65Y, L86I, V93F, G110N, W128Y
modifications: disulfide-linked glycosylated homodimer
Percent of Material Precipitated ([2]; 0 minutes): 100% | Percent of Material Precipitated ([2]; 30 minutes): 100% | Percent of Material Precipitated ([2]; 60 minutes): 100% | Percent of Material Precipitated ([2]; 90 minutes): 100% | Percent of Material Precipitated ([2]; 120 minutes): 100% | Percent of Material Precipitated ([2]; 150 minutes): 100% | Ectopic Bone Formation Volume [7]: 78 mm^3
